We go through one molecule from PMC9584909, “Atomic resolution protein allostery from the multi-state structure of a PDZ domain” (Nature Communications, 2022).

In the experiment the target is T1, PDZ2 domain of human tyrosine phosphatase 1E (hPTP1E) (human, UniProt Q12923 1361-1456).
T1 construct: PDZ2 domain of human tyrosine phosphatase 1E (hPTP1E); Uniformly 15N- or 15N,13C-enriched for NMR; also called apo PDZ2; holo PDZ2; source: E. coli BL21 (DE3), purified (Ni-NTA, tag cleaved with HRV-3C protease, second Ni-NTA pass); not shown: polyhistidine, N-terminal, cleaved
T1 sequence: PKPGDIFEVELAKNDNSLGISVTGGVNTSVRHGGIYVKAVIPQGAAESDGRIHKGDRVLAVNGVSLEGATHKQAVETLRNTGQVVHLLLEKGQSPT
Nature of the experiment: NMR titration; [1H,15N]-HSQC of uniformly 15N-enriched PDZ2, free and with the peptide in twofold excess; 298 K; 150 mM sodium chloride, 50 mM phosphate buffer pH 6.8; chemical shift perturbation. The note with it: both partners purified.

B1: C-terminal eight-residue peptide derived from the Ras-associated guanine nucleotide exchange factor 2 (RA-GEF2) (peptide)
peptide: Ac-ENEQVSAV-OH
notes: the eight C-terminal residues of Ras-associated / Rap guanine nucleotide exchange factor 2 (RA-GEF2); also called RA-GEF2 peptide; source: synthetic peptide, bought: BACHEM
Take B1: the binding result was “binds”.
